Assay results as given in patent US6200577A, “Anti-herpesviral agents and assays therefor” (priority 1996, dated 2001).

Experiments:
[1] = Solubility of synthetic peptides in buffer; type: physicochemical; conditions: peptides dissolved in 20 mM Tris-HCl, pH 8.0, 250 mM NaCl; unpurified preparations
Protocol: Synthesis and Purification of Oligopeptides. Peptides were synthesised by continuous flow Fmoc chemistry (Atherton and Sheppard, 1989; McLean et al., 1991) and, where stated in the text, were purified by preparative reverse-phase HPLC (Owsianka et al., 1993). The Mr values of peptides were determined by fast atom bombardment mass spectrometry (M-Scan) and corresponded to the predicted values. Peptides were dissolved in 20 mM Tris-HCl, pH 8.0, 250 mM NaCl and centrifuged at 11,500 g for 1 minute prior to use. […] Precipitates were removed by centrifugation before use.

[2] = biological target: T1, VP16 (Human herpesvirus 1, UniProt P06492); assay: ELISA of direct binding of VP16 to plate-coated peptides; design: species or system HSV-1; conditions: wells coated with peptide up to 500 μg/ml; VP16 1.6 μg/ml; FIG. 10
T1 construct: Plasmid pETVP16 was used to express full-length VP16 under the control of the T7 RNA polymerase promoter; made in house; host or cells: E. coli BL21(DE3)
T1 sequence (P06492 whole entry): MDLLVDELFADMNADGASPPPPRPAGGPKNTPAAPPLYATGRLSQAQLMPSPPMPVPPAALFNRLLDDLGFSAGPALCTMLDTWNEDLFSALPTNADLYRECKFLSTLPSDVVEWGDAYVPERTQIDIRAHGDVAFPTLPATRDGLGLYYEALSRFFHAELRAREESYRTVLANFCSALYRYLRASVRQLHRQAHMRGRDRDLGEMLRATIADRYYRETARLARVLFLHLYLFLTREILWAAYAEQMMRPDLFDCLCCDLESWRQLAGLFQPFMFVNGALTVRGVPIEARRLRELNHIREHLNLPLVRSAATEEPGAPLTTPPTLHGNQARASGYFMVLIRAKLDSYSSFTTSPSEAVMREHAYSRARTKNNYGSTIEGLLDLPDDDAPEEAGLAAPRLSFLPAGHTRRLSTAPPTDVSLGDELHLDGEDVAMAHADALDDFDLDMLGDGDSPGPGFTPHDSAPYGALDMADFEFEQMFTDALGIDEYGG
Protocol: FIG. 10 Binding of VP16 to peptides. Microtitre plates were coated with 5-fold dilutions of peptides ranging from 500 μg/ml to 1 μg/ml and blocked with PBS/10% NCS. VP16 was then added to a final concentration of 1.6 μg/ml and detected with LP1. The legend for the peptides added is shown to the right of the graph.
Dilutions of proteins in PBS were coated overnight onto flat bottomed micro-titre plates (Dynatech) at 37° C. and then blocked with either 2% BSA or 10% new-born calf serum (NCS) in PBS for 1 hour at 37° C. Specific binding of a second protein to the plate-bound protein was performed for 1.5-2 hours at ambient temperature. a Excess secondary protein was removed by washing four times with PBS, 0.3% Tween 20. Bound protein was detected by incubation for 1.5-2 hours with LP1 antibody in PBS, 1% gelatin or PBS, 2% NCS. The bound antibody was detected by incubation for 1 hour at ambient temperature with anti-mouse antibody conjugated to HRP (1:500) and visualised with Smg/ml enzyme substrate 2,2'-azino-bis(3-ethylbenzthiazoline-6-sulphonic acid) (ABTS; Sigma) in citrate-phosphate buffer containing 6 μl hydrogen peroxide in a total volume of 20 ml. Optical densities were measured on a Titertek Multiscan PLUS instrument.
To examine whether VP16 could bind directly to the peptides, wells were coated with each peptide (A-J) at a range of concentrations from […] to 500 μg/ml and the plate was then blocked with […]. […] Nonetheless, the data for peptides D and E implicate direct binding of these peptides to VP16 as the mechanism for inhibiting its interaction with VP22. Peptide H also was active in experiments which prevented gB binding to VP22trunc [Section 4 (iii)] and thus also forms an aspect of the invention.

[3] = biological target: T2, VP16/VP22trunc interaction (Human herpesvirus 1, UniProt P06492); assay: Co-purification of VP16 with VP22trunc on Ni-NTA resin in presence of peptides; type: binding, HSV-1; conditions: crude peptide at 2 mg/ml (about 1 mM), equal volume mixed with partially purified VP16 extract before VP22trunc
T2 construct: Plasmid pETVP16 was used to express full-length VP16 under the control of the T7 RNA polymerase promoter; made in house; host or cells: E. coli BL21(DE3)
T2 sequence (P06492 whole entry): as above
Protocol: FIG. 4 Co-elution of VP16 with VP22trunc from Ni-NTA resin. Partially purified extract containing VP16 was incubated in the absence of (lane 14) or presence of […] of VP22trunc (lanes 3 to 13). In lanes 3 to 12, an equal volume of the individual peptides at 2 mg/ml was added to the extract prior to VP22trunc. Peptides added to each reaction were as follows: lane 3, peptide A; lane 4, peptide B; lane 5, peptide C; lane 6, peptide D; lane 7, peptide E; lane 8, peptide F; lane 9, peptide G; lane 10, peptide H; lane 11, peptide I; lane 12, peptide J; lane 13, no peptide. Lanes 3 to 14 show the polypeptides eluted from Ni-NTA resin. Other samples were as follows: lane 1, partially purified VP16 extract, lane 2, purified VP16; lane 15, purified VP22trunc. Samples were electrophoresed on a 12% polyacrylamide gel and the apparent molecular weights of VP16 (65 KDa) and VP22trunc (16 KDa) are shown.
Co-purification of VP16 with VP22trunc on Ni-NTA Resin. Purified VP22trunc and a partially purified extract containing VP16, both in 20 mM Tris-HCl, pH8.0, 250 mM NaCl, were mixed at 4° C. for 15 to 30 minutes on a rotator. 50 μl of equilibrated Ni-NTA resin was added to each mixture and incubation was continued at 40C for a further 15 to 30 minutes. Resin was pelleted at 800 g for 1 minute and the supernatant (non-bound fraction) was removed. Resin was washed sequentially with 0.5 ml of 20 mM Tris-HCl, pH 8.0, 250 mM NaCl, 5 mM imidazole (twice) and 0.5 ml of 20 mM Tris-HCl, pH 8.0, 250 mM NaCl, 60 mM imidazole (four times). Bound protein was eluted by addition of 50 μl of boiling mix (160 mM Tris-HCl, pH 6.7, 2% SDS, 700 mM β-mercaptoethanol, 10% glycerol, 0.002% bromophenol blue) followed by heating to 100° C. for 5 minutes. For peptide studies, peptides were dissolved in 20 mM Tris-HCl, pH8.0, 250 mM NaCl at a concentration of 2 mg/ml. Incubation of peptides with partially purified VP16 extracts was performed at ambient temperature for 2 hours prior to the addition of VP22trunc. Samples were electrophoresed on denaturing polyacrylamide gels.
Results presented in Section 2(i) had shown that VP16 co-elutes from Ni-NTA resin in the presence of VP22trunc and it was concluded that this indicated interaction between these polypeptides. The ability of synthetic peptides to inhibit this interaction was analysed by mixing them individually with the partially purified VP16 extract prior to addition of VP22trunc. From the intensity of the 65 KDa species in the crude extract (FIG. 4, lane 2), it was estimated that the concentration of VP16 was approximately […]. To ensure that experiments were performed in an excess of peptide, peptides were prepared at a concentration of 2 mg/ml (about 1 mM) and equal volumes of peptide and extract were mixed. This gave a relative molar ratio of VP16 to peptide of 1:300. However, it should be noted that certain peptides were not completely soluble (Table 1) and in those cases, the ratio would be reduced.

[4] = biological target: T3, gB/VP22trunc binding (Human herpesvirus 1, UniProt P10211); assay: Far Western analysis of peptide inhibition of GST-gB binding to VP22trunc; design: species or system HSV-1; conditions: peptide 250 μg/ml co-incubated with GST-gB 1.2 μg/ml; FIG. 12B
T3 construct: linked residues 798 to 904 of gB to the glutathione-S-transferase (GST) protein expressed by pGex2TNMCR; made in house; host or cells: GST-gB: E. coli DH5alpha; VP22trunc: E. coli BL21(DE3)
T3 sequence (P10211 798-904): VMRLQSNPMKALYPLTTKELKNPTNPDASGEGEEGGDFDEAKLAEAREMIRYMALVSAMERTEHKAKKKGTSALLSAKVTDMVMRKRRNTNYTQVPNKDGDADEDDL
Protocol: (B) Inhibition of binding of GST-gB (final concentration 1.2 μg/ml)and each of the following peptides at a final concentration of 250 μg/ml: lane 1, no peptide; lane 2, peptide A; lane 3, peptide B; lane 4, peptide C; lane 5, peptide D; lane 6, peptide E; lane 7, peptide F; lane 8, peptide G; lane 9, peptide H; lane 10, peptide I; lane 11, peptide J. Bound GST-gB was detected with anti-GST antibody.
Following electrophoresis, proteins were electrotransferred to either Hybond or ProBlott (Applied Biosystems) membrane and the membrane was incubated in renaturation buffer (50 mM Tris-HCl, pH 8.0, 150 mM NaCl, 10% glycerol, 1 mM DTT) at 4° C. for 5-6 hours.
For membranes probed with GST-gB, blocking was performed overnight in PBSA containing 1% non-fat dried milk and 0.05% Tween 20 at 4° C. Membranes were then washed twice in renaturation buffer (10 min/wash) prior to incubation with fusion protein (final concentration 0.5 μg/ml) in renaturation buffer containing 1% BSA. Incubation was again performed overnight at 4° C. Following washing with renaturation buffer (four times, 10 minutes/wash) and a brief rinse with blocking buffer, the membrane was incubated with anti-GST antibody in PBSA, 1% non-fat dried milk, 0.05% Tween 20 and 1% BSA for 1 hour at ambient temperature. After four washes with PBSA, 0.05% Tween 20 (10 minutes/wash), bound antibody was detected with secondary antibody (goat anti-rabbit IgG, whole molecule; Sigma) conjugated to Horse Radish Peroxidase (HRP) by incubating at room temperature for 45 minutes. Following four further washes with PBSA, 0.05% Tween 20, the secondary antibody was visualised by enhanced chemiluminescence.
Similar to the studies performed with inhibition of binding of VP16 to VP22, peptides A to J, which span residues 18 to 144 of VP22trunc, were used to examine whether gB binding could also be prevented (FIG. 12B).

For ITTIRVTVCEGKNLLQRANE [Peptide H], the Solubility [1] was “soluble”, the “Direct binding of VP16 to plate-coated peptide (ELISA)” value [2] was “evidence also for VP16 binding” and the “Co-elution of VP16 with VP22trunc from Ni-NTA resin after incubation with peptide” value [3] was “does not prevent interaction with VP22”. For the same sequence, the “Inhibition of GST-gB binding to VP22trunc (Far Western)” value [4] was “completely inhibited binding of gB”.
